Measured values as given in patent US20200339681A1 (ORUM THERAPEUTICS, published 2020).
Substitutions are numbered along the chain they refer to. Names may count otherwise. One block for each binder: values may come before it.

Key:
[1] = molecular target: T1, EpCAM (epithelial cell adhesion molecule) on human colorectal cancer cell lines SW480 and LoVo (human, UniProt P16422 24-314); test: flow cytometry, 500 nM antibody, Alexa488 anti-human Fc
T1 construct: whole, on cells; also called cell-surface EpCAM
T1 sequence (looked up): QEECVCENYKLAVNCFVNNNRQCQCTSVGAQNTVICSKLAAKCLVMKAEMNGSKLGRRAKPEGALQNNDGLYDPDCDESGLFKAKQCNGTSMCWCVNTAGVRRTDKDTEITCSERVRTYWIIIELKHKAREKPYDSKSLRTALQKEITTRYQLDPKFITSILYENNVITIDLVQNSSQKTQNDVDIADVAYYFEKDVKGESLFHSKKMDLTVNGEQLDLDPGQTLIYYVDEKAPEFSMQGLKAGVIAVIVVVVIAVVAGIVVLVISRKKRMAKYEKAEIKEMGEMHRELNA

[2] = molecular target: T1, EpCAM (epithelial cell adhesion …); test: flow cytometry on LoVo cells, 100 nM antibody, Alexa488 anti-human Fc
[3] = molecular target: T2, human neonatal Fc receptor (hFcRn) (human, UniProt P55899 24-297; P61769 21-119, limits assumed); test: SPR (Biacore 2000), FcRn immobilised, pH 6.0, antibody 2000-62.5 nM; pH 6.0
T2 construct: Immobilised on the CM5 chip, pH 6.0

[4] = molecular target: T2, human neonatal Fc receptor (hFcRn); test: SPR (Biacore 2000), FcRn immobilised, pH 6.0, antibody 200-6.25 nM
[5] = molecular target: T2, human neonatal Fc receptor (hFcRn); test: SPR (Biacore 2000), FcRn immobilised, pH 6.0, antibody 2000-62.5 nM
[6] = molecular target: T3, integrin αvβ3 on integrin αvβ3-expressing K562 cells (UniProt P06756 31-1048; P05106 27-788, limits assumed); test: flow cytometry, 500 nM antibody, Alexa488 anti-human Fc
T3 construct: whole, on cells; also called integrin ανβ3

[7] = molecular target: T4, integrin αvβ5 on human colorectal cancer cell lines SW480 and LoVo (human, UniProt P06756 31-1048; P18084 24-799); test: as above
T4 construct: whole, on cells; also called integrin ανβ5

binding result [1]: binds
B1: RT22-ep59 MG (antibody, human IgG1)
heavy: not shown
VL: EHLHCLGSLCWPMGSSSNDIQMTQSPSSLSASVGDRVTITCKSSQSLLNSRDGKNYLAWYQQKPGKAPKLLIYWASTRESGVPSRFSGSGSGTDFTLTISSLQPEDFATYFCQQYWYWMYTFGQGTKVEIKR
notes: also called epRas03 MG

binding result [2]: binds
B2: epRas23 MG (antibody, human IgG1)
heavy: not shown
VL: B1 VL

Kd [3]: 2700 nM
B3: epRas13 (RT22 VH, IgG1 N434D, hT4-ep59 GSSG light chain) (antibody)
heavy: not shown
VL: EHLHCLGSLCWPGSSGDIQMTQSPSSLSASVGDRVTITCKSSQSLLNSRDGKNYLAWYQQKPGKAPKLLIYWASTRESGVPSRFSGSGSGTDFTLTISSLQPEDFATYFCQQYWYWMYTFGQGTKVEIKR

Kd [4]: 148 nM
B4: epRas03 (RT22 VH, IgG1, hT4-ep59 GSSG light chain) (antibody)
heavy: not shown
VL: B3 VL
notes: Differs from epRas03 MG by the linker of the light chain

Kd [5]: 3570 nM
B5: epRas83 (RT22 VH, IgG1 LALA-PG, N434D, hT4-ep59 GSSG light chain) (antibody)
heavy: not shown
VL: B3 VL

binding result [6]: binds
binding result [7]: binds
B6: RT22-i38 MG (antibody, IgG1, V domains shown)
VH: EVQLVESGGGLVQPGGSLRLSCAASGFTFSDFSMSWVRQAPGKGLEWVSYISRTSHTTYYADSVKGRFTISRDNSKNTLYLQMNSLRAEDTAVYYCARGFKMDYWGQGTLVTVSS
VL: DLVMTQSPSSLSASVGDRVTITCKSSQSLLNSRTGKTYLAWYQQKPGKAPKLLIYWASTRESGVPSRFSGSGSGTDFTLTISSLQPEDFATYFCQQYWYWMYTFGQGTKVEIKR
notes: Intact IgG1,κ

binding result [6]: binds
binding result [7]: binds
B7: RT22-i39 MG (antibody, IgG1, V domains shown)
VH: B6 VH
VL: DGARYCRGDCFDGMGSSSNDLVMTQSPSSLSASVGDRVTITCKSSQSLLNSRDGKNYLAWYQQKPGKAPKLLIYWASTRESGVPSRFSGSGSGTDFTLTISSLQPEDFATYFCQQYWYWMYTFGQGTKVEIKR
notes: Intact IgG1,κ

binding result [1]: binds
B8: RT22-ep58 MG (antibody, IgG1, V domains shown)
VH: B6 VH
VL: B6 VL with L2I, V3Q
notes: Intact IgG1,κ
